Test results reported in paper PMC8093215 (Nature Communications, 2021).
Read-outs that look alike come from different tables or passages of the source. No end group written: not given here. trimethyl = trimethyl-lysine; dimethyl = dimethyl-lysine

Key:
[1] = molecular target: T1, MBP-tagged human DNMT1 residues 351-1600, M718A/H719A/K723A/K724A/K725A/Q726A (Mut^linker) (human, UniProt P26358 351-1600, M718A | H719A | K723A | K724A | K725A | Q726A); assay: ITC
T1 construct: numbering on isoform 1 of 1616 amino acids; also called MBP-Mut^linker; source: E. coli BL21(DE3) RIL, purified

[2] = molecular target: T2, human DNMT1 BAH1 domain (residues 728-900), E819A (human, UniProt P26358 728-900, E819A); assay: ITC; 1 mM H4K20me peptide titrated over 0.1 mM hDNMT1 BAH1 or BAH2 domain; 25 mM Tris-HCl pH 7.5, 100 mM NaCl, 2 mM DTT; 5 °C; single-site binding mode; conditions: both partners purified
T2 construct: numbering on isoform 1 of 1616 amino acids; also called hDNMT1_(BAH1), E819A; source: E. coli BL21(DE3) RIL, purified as the wild-type protein; not shown: His6-SUMO, N-terminal, cleaved

[3] = molecular target: T3, human DNMT1 BAH1 domain (residues 728-900), D768A (human, UniProt P26358 728-900, D768A); assay: as above; conditions: both partners purified
T3 construct: numbering on isoform 1 of 1616 amino acids; also called hDNMT1_(BAH1), D768A; source: E. coli BL21(DE3) RIL, purified as the wild-type protein; not shown: His6-SUMO, N-terminal, cleaved

[4] = molecular target: T4, human DNMT1 BAH1 domain (residues 728-900), E821A (human, UniProt P26358 728-900, E821A); assay: as above; conditions: both partners purified
T4 construct: numbering on isoform 1 of 1616 amino acids; also called hDNMT1_(BAH1), E821A; source: E. coli BL21(DE3) RIL, purified as the wild-type protein; not shown: His6-SUMO, N-terminal, cleaved

[5] = molecular target: T1, MBP-tagged human DNMT1 residues …; assay: ITC; remark: listed apart in the source
[6] = molecular target: T5, human ORC1 BAH domain (residues 1-185) (human, UniProt Q13415 1-185); assay: ITC; 0.45 mM H4K20me2 peptide titrated over 64 µM ORC1 BAH domain; 20 mM Tris-HCl pH 7.5, 100 mM NaCl, 1 mM DTT; 5 °C; single-site binding mode; conditions: both partners purified
T5 construct: human origin recognition complex subunit 1 (ORC1), BAH domain, residues 1-185
T5 sequence (looked up): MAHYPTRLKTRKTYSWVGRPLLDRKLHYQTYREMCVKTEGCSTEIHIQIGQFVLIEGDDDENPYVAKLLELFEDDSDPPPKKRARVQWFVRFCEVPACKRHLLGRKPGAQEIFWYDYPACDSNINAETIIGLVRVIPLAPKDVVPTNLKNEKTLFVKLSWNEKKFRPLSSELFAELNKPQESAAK

[7] = molecular target: T6, human DNMT1 BAH1 domain, wild type, His6-MBP construct used for the autoinhibitory linker binding (human, UniProt P26358 728-900); assay: ITC; hDNMT1 BAH1 domain (WT, W796A or Mut^YW) with the autoinhibitory linker peptide hDNMT1(714-727); 5 °C; single-site binding mode; conditions: both partners purified
T6 construct: numbering on isoform 1 of 1616 amino acids; also called hDNMT1_(BAH1), WT; source: E. coli BL21(DE3) RIL, purified (Ni, ion exchange, TEV cleavage, Ni, SEC)

[8] = molecular target: T7, hDNMT1 BAH1 domain from the His6-MBP vector (human, UniProt P26358 728-900); assay: ITC; hDNMT1 BAH1 (WT, W796A or Mut^YW) with the autoinhibitory linker peptide hDNMT1(714-727); 5 °C; single-site fit; conditions: both partners purified
T7 construct: numbering on isoform 1 of DNMT1 with 1616 amino acids; also called WT; source: E. coli BL21(DE3) RIL, purified (Ni, ion exchange, TEV cleavage, Ni, SEC); not shown: His6-MBP, N-terminal, cleaved

[9] = molecular target: T8, bovine DNMT1 BAH1 domain (residues 725–897, residues 838–858 replaced by GAGSA) (bovine, UniProt Q24K09 725-837; Q24K09 859-897); assay: crystal structure; bDNMT1 BAH1 mixed with peptide 1:3; hanging drop, 13% PEG1500, 20 mM DTT, 200 mM L-proline, 4 °C; HEPES pH 7.5 (K20me3) or MES pH 6.5 (K20me2); conditions: both partners purified
T8 construct: bovine DNMT1 BAH1 domain, residues 725-837; linker that replaces residues 838-858 to facilitate crystallization; bovine DNMT1 BAH1 domain, residues 859-897; the last two beta-strands were domain-swapped during crystallization; also called bDNMT1_(BAH1); source: E. coli BL21(DE3) RIL, purified (Ni, ULP1 cleavage, Q XL, Ni, SEC); not shown: His6-SUMO, N-terminal, cleaved
T8 chain: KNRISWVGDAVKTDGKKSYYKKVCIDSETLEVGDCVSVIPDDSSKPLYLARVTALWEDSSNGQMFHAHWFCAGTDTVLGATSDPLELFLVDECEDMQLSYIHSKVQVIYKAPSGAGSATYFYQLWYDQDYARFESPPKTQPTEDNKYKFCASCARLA

T3 sequence (P26358 728-900 D768A): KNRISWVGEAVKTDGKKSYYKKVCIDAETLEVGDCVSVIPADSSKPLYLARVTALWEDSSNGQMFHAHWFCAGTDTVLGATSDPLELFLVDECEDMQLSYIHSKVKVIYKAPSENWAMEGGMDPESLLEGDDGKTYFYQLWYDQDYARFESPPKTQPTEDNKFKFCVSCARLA
T2 sequence (P26358 728-900 E819A): as the sequence (P26358 728-900 D768A) above, with A41D, E92A counted along it
T4 sequence (P26358 728-900 E821A): as the sequence (P26358 728-900 D768A) above, with A41D, E94A counted along it
T1 sequence (P26358 351-1600 M718A/H719A/K723A/K724A/K725A/Q726A): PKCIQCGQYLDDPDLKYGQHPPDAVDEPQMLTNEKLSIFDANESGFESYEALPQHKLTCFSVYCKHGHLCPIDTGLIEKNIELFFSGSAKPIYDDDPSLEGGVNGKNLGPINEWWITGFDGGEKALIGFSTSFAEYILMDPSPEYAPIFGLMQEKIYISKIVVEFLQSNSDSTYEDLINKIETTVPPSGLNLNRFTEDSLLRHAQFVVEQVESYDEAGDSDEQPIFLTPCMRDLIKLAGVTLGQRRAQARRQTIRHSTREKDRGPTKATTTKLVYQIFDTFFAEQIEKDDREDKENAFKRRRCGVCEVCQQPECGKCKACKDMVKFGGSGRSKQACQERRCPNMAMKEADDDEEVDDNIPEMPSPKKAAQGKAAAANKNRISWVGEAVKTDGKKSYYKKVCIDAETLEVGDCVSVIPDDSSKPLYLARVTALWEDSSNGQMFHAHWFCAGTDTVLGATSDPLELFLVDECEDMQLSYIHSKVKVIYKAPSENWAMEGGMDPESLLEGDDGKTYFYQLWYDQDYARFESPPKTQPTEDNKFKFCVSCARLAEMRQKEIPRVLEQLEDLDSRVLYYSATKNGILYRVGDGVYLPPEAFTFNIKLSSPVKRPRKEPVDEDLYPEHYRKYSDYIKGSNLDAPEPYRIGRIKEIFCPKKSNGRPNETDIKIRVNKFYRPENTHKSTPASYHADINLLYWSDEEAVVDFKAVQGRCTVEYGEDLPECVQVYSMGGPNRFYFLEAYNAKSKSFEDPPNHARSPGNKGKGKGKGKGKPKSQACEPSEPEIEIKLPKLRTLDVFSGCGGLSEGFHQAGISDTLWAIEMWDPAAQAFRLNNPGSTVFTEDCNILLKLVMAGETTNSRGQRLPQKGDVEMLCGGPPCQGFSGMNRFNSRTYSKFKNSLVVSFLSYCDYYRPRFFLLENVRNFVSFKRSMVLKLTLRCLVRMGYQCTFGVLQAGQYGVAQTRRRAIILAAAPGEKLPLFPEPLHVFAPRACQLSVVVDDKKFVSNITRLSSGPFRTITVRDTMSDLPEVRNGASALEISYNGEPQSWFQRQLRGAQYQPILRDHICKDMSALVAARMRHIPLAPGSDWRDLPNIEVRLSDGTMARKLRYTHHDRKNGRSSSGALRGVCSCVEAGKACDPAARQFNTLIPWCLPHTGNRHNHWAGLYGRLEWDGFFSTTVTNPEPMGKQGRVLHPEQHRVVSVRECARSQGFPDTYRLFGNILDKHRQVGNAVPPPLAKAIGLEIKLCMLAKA
T6 sequence (P26358 728-900): as the sequence (P26358 728-900 D768A) above, with A41D counted along it
T7 sequence (P26358 728-900): as the sequence (P26358 728-900 D768A) above, with A41D counted along it

Binder | Kd [2] [µM] | stoichiometry N [2] | Kd [3] [µM] | stoichiometry N [3] | Kd [4] [µM] | stoichiometry N [4] | binding result [9] | also measured
GAKRHRKVLRDNY (trimethyl-lysine at K20, histone H4, residues 14-25; additional C-terminal tyrosine for spectroscopic quantification; also called H4K20me3 peptide; source: synthetic peptide (LifeTein)) [H4(14-25)K20me3 peptide] | 9.4 | 0.73 | 11.5 | 0.82 | 91.7 | 0.88 |  | Kd [1]: 122 µM; stoichiometry N [1]: 1.45; Kd [5]: 131 µM
GAKRHRK(dimethyl)VLRDNY (histone H4, residues 14-25; additional C-terminal tyrosine for spectroscopic quantification; source: synthetic peptide (LifeTein)) [H4(14-25)K20me2 peptide] | 12.3 | 0.87 | 9.3 | 0.92 | 35.4 | 0.83 |  | Kd [6]: 8.7 µM; stoichiometry N [6]: 0.75
SPKKMHQGKKKKQNY (numbering on isoform 1 of 1616 amino acids; additional C-terminal tyrosine for spectroscopic quantification; source: synthetic peptide (LifeTein)) [hDNMT1(714-727) autoinhibitory linker peptide] |  |  |  |  |  |  |  | stoichiometry N [7]: 1
SPKKMHQGKKKKQNY (numbering on isoform 1 of DNMT1 with 1616 amino acids; additional C-terminal tyrosine for spectroscopic quantification; source: synthetic peptide (LifeTein)) [autoinhibitory linker peptide hDNMT1(714–727)] |  |  |  |  |  |  |  | Kd [8]: ~70 µM
GAKRHRK(trimethyl)VLRDNY (histone H4, residues 14-25; additional C-terminal tyrosine for spectroscopic quantification; also called H4K20me3 peptide; source: synthetic peptide (LifeTein)) [H4(14–25)K20me3 peptide] |  |  |  |  |  |  | binds | 
GAKRHRK(dimethyl)VLRDNY (histone H4, residues 14-25; additional C-terminal tyrosine for spectroscopic quantification; also called H4K20me2 peptide; source: synthetic peptide (LifeTein)) [H4(14–25)K20me2 peptide] |  |  |  |  |  |  | binds | 
